We go through 41 sequences from the nanobody polyreactivity screen of Harvey et al. (2022).

The data set can be described thus: yeast display, Sf9 membrane polyspecificity reagent, FACS + sequencing; frameworks hold sequencing errors. Summed up: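 Polyreactivity labels are assigned by the sorting gate from which each nanobody was recovered. The gates were low and high (top ~1%), set on anti-HA fluorescence for expression and streptavidin fluorescence for reagent binding. Before sorting, galactose-induced (36–48 hours) yeast display cells were stained for 1 hour at 4 °C with 10% biotinylated, detergent-solubilized Sf9 membrane reagent.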
As for “QVQLVESGGGLVQAGGSLRLSFAASGFTLVGYTMGWYRQAPGKERELVAAINWSGGRTYYADSVKGRFTISRDNAKNTVYLQMNSLKPVDTAVYYCAADSLRYKKYYYWGQGTQVTVSS”, the “polyreactivity (PSR sort gate)” value is on record as “high polyreactivity”.

Consider “QVQLVESGGGLVQAGGSLRLSFAASGLIGRYAMGWYRQAPGKERELVAVITSGDSTYYADSVKGRFTISRDNAKNTVYLQMNSLKQEDTAVYYCAADSYRRWGNLFTGNEYDSWGQGTQVTVSS”, for which the “polyreactivity (PSR sort gate)” value is reported as “low polyreactivity”. As to “QVQLVESGGGLVQAGGSLRLSFAASGLIVTGYAMGWYRQRPGKEREVVAAITSGGGTNYADSVKGRFTISRDNAKNTVDLQMNSLKPEDTAVYYCAVDFGHYYLYSITSYLWYWDGYDYWGQGTQVTVSS”, the “polyreactivity (PSR sort gate)” value was “low polyreactivity”. For “QVQLVESGGGLVQAGGSLRLSFAASGNIFSFNDMGWYRQAPGQERELVAAITSSDSTNYADSVKGRFTISRDNAKNTVYLQMNSLKPEDTAVYYCATEILTAARETVVYQFYLGYYYWGQGTQVTVSS”, the “polyreactivity (PSR sort gate)” value is given as “low polyreactivity”.

Regarding “QVQLVESGGGLVQAGGSLRLSFAASGRIFDYNVMGWYRQAPGKERELVADITSSGGATYYADSVKGRFTNSRDNAKNTVYLQMNSLKPEDTAVYYCYISYFTFYDDFYYWGQGTQVTVSS”, the “polyreactivity (PSR sort gate)” value is given as “low polyreactivity”.

Consider “QVQLVESGGGLVQAGGSLRLSFAASGRTFLVYAMGWYRQAPGKERELVAGITSGGGTYYADSVKGRFTISRDNAKNTVYLQMNSLKPEDTAVYYCAKYRWYGVYWGQGTQVTVSS”, for which the “polyreactivity (PSR sort gate)” value is “low polyreactivity”.

As to “QVQLVESGGGLVQAGGSLRLSFAASGRTFPDNAMGWYRQAPGTQRELVATISWSGGSTYYADSVKGRFTISRDNAKNTVYLQMNSLKPEDTAVYYCARDSLQVFYPYASDDYWGQGTQVTVSS”, the “polyreactivity (PSR sort gate)” value was “low polyreactivity”. For the sequence “QVQLVESGGGLVQAGGSLRLSFAASGRTFSGYAMGWYRQAPGKERELVASISGSGSSTYYADSVKGRFTISRDNAKNTVYLQMNSLKPEHTAVYYCNATRAGENPDGGDEYWGQGTQVTVSS”, the “polyreactivity (PSR sort gate)” value was “high polyreactivity”. As for “QVQLVESGGGLVQAGGSLRLSFAASGRTFTYNAMGVYRQAPGKERELVAAMTYRGGSTYYADSVKGRFTISRDNAKNTVYLQMNSLKPEDTAVYYCAARVSYYRYNTPHYYYWGQGTQVTVSS”, the “polyreactivity (PSR sort gate)” value is given as “high polyreactivity”. Under “QVQLVESGGGLVQAGGSLRLSFAASGRTFYGYAMGWYRQAPGKERELVASIRQSAGRTYYADSVKGRFTISRDISKNTVYLVMNSLKPEDSAVYYCAASIFLRSFYQQGNYWGQGTHVTVSS” stands “high polyreactivity”; under “QVQLVESGGGLVQAGGSLRLSFAASGRTFYINDMGWYRQAPGKERELVAAITWRGGSTYYADSVKGRFTISRDNAMNTVYLQMNSLKPEDTAVYYCAAYISLYWWYDYWGQGTQVTVSS”, “low polyreactivity”. “QVQLVESGGGLVQAGGSLRLSFAASGSIFKGNVMGWYRQAPGKERELVAGISRRGTSTYYADSVKGRFTISRDNAKNSVYLQMNSLKPEDSAVYYCAKRYYTYGYDYWGQGTQVTVSS”: the “polyreactivity (PSR sort gate)” value is “high polyreactivity”. Take “QVQLVESGGGLVQAGGSLRLSFAASGSIFRYYVMGWYRQAPGKERELVAAISSGGRTYYADSVKGRFTISRDNAKNTVYLQMNSLKPEDTAVYYCNAQGLFYWEMDYWGQGTQVTVSS”: the “polyreactivity (PSR sort gate)” value is “high polyreactivity”. Under “QVQLVESGGGLVQAGGSLRLSFAASGSNFAVKAMGLNTPAPGKERELVATITRRDGSTYYADSVKGRFTISRDNAKYTVYLQLNSLKPEDTAVYYCNARLKRTYDYWGQGTQVTVSS” stands “high polyreactivity”; under “QVQLVESGGGLVQAGGSLRLSFAASGSNFYIYAMGWYRQAPGKERELVAAITSGGNTYYVDSVKGRFTISRDNAKNTVYFQMNSLKPEDTAVYYCAAELYDRWSRMDYWGQGTQVTVSS”, “low polyreactivity”. In the case of “QVQLVESGGGLVQAGGSLRLSFAASGSTFKFNAMGWYRQAPGKERELVATITSRGSRTYYADSVKGRFTISRDNAKNTVYLQMNSLKPEDTAVYYCAKVSKRVGFPTAMNYWGQGTQVTVSS”, the “polyreactivity (PSR sort gate)” value is “high polyreactivity”. Take “QVQLVESGGGLVQAGGSLRLSFAASGSTIGDNAMGWYRQAPGKERELVAVITSDTSTYYADSVKGRFTISRDNAMNTVYLQMNSLKPEDTAVYYCAADWGGLWFWYEYWGQGTQVTVSS”: the “polyreactivity (PSR sort gate)” value is on record as “low polyreactivity”.

In the case of “QVQLVESGGGLVQAGGSLRLSFAASGSTLGQNAMGWYRQARGKERELVAASSSGGRTYYADSVKGRFTISRDNAKNTVYLQMNSLNPEDTAVYYCNAVAYSLSGYNSWGQGTQVTVSS”, the “polyreactivity (PSR sort gate)” value is given as “high polyreactivity”.

“QVQLVESGGGLVQAGGSLRLSFAASGYTFSPYAMGWYRQAPGKERELVAVISSSASTYYADSVKGRFTISRDNAKITVYLQMNSLKPEDTAVYYCAAQPAHPRRYDYWGQGTQVTVSS”: the “polyreactivity (PSR sort gate)” value was “high polyreactivity”. As for “QVQLVESGGGLVQAGGSLRLSFAASGYTFWYYAMGWYRQAPGKERELVARISKRGGSTYYADSVKGRFTISRDNAKNTVYLQMNSLKPEDTEVYYCAADTRQQSHSMDYWGQGTQVTVSS”, the “polyreactivity (PSR sort gate)” value is given as “low polyreactivity”.

Take “QVQLVESGGGLVQAGGSLRLSFGASGLNFGWYAMGWYRKAPGKERELVAAITYDGDSTYYADSVKGRFTISRDNAKNTVYFQMNSLKPEDTAFYYCAGEYGYGEMDSWGQGTQVTVTS”: the “polyreactivity (PSR sort gate)” value is on record as “high polyreactivity”.

As for “QVQLVESGGGLVQAGGSLRLSGAASGITIKRYAMGWYRQAPGKEREFVATISQSGTSTYYADSVKGRFTISRDNAQNTVYLQMNSLKPEDTAVYYCAADYIGYWYGYYSWGQGTQVTVSS”, the “polyreactivity (PSR sort gate)” value was “low polyreactivity”. For the sequence “QVQLVESGGGLVQAGGSLRLSGAASGNIFDNYAMGWYRQAPGKERELVAAITWSGGSTYYADSVKGRFTISRDNAKNTVYLQMNSLKPEDTAVYFCNTDYNHVFAYDHWGQGTQVTVSS”, the “polyreactivity (PSR sort gate)” value is reported as “low polyreactivity”.

Consider “QVQLVESGGGLVQAGGSLRLSGAASGRIFAQYAMGWYRPAPAKERELVAAITAGDDTYADSVKGRFTISRDNAKNTVYLQMNSLKPEDTAVYYCAAETWDLTWWGAYDLGEYWGQGTQVTVSS”, for which the “polyreactivity (PSR sort gate)” value is recorded as “high polyreactivity”. With “QVQLVESGGGLVQAGGSLRLSGAASGRIFATNAMGWYRQAPGKETELVATITRSAGRTYYADSVKGRFTNSRDNAKNTVYLQMNSLKPEETAVYYCAASYWDTEPGYREYDYWGQGTQVTVSS”, the “polyreactivity (PSR sort gate)” value is recorded as “low polyreactivity”.

In the case of “QVQLVESGGGLVQAGGSLRLSGAASGRIFGSYARGWYRQAPGKEREFVAGIRSVGSTNYADSVKGRFTISRDNAKNTVYLQMNSLKPEDTAVSYCASRLWHVSYAGQGGDYWGKGTQVTVSS”, the “polyreactivity (PSR sort gate)” value is recorded as “low polyreactivity”. Turning to “QVQLVESGGGLVQAGGSLRLSGAASGRTFKHYVMGWYRQAPGKARELVAAYRSGGRTNYADSVKGRFTISRDNAKNTVYLQMNRVKPADTAVYYCAARYFSQYQGAGYDSWGQGTQVTVSS”, the “polyreactivity (PSR sort gate)” value is “high polyreactivity”.

In the case of “QVQLVESGGGLVQAGGSLRLSGDATGLIFNKYAMGWYRQAPGKERELVAVISFRGDGTHYADSVKGRFTISRDNAKYTVYLQMNSLKPEDTAVYYCNARTSIYGRRLYDYWGQGTQVTVSS”, the “polyreactivity (PSR sort gate)” value was “high polyreactivity”. Under “QVQLVESGGGLVQAGGSLRLSGSASGRTFSQYVMRWYRQAPGQERELVAAISKRGGRTYYADSVQGRFTISRDNAKNTVYLQMNSLNPEDTAVYYCNDVYRYYPFDYWGQGTQVTVSS” stands “high polyreactivity”; under “QVQLVESGGGLVQAGGSLRLSRAASGFTWSYAMGWYRQAPGKERELVATISDGVSTNYADSVKGRFTISRDNAKNTVYLQRNSLKPEDTAVYYCAAEIPRRWASFATLWYDYWGQGTQVTVSS”, “low polyreactivity”; under “QVQLVESGGGLVQAGGSLRLSRAASGRTFYGYAMGWYRQAPGKESELVARIRSGGSTNYADSVKGRFTISRDNAKNTVYLLMNSLIPEDTAVFYCAARPGAAGYKYYYWGQGTQVTVSS”, “high polyreactivity”. The same measure for “QVQLVESGGGLVQAGGSLRLSSAASARIFFKNTKGWYRPAPGKERELVAAITSSGSSTYYADSVKGRFTISRDNAKKTVYLQMNSLKPEDTAVYYCNALTWDHSRTGVDYWGQGTQVTVSS”: “low polyreactivity”. Take “QVQLVESGGGLVQAGGSLRLSSAASGFIFGAYAMGWYRQAPGKERELVAANSSRGGNTYYADSVKGRFTISRDNAKNTVYLQMNSLKPEDPAVYDCNAVGYAPYLYVPPPYEYWGQGTQVTVSS”: the “polyreactivity (PSR sort gate)” value is listed as “high polyreactivity”. For the sequence “QVQLVESGGGLVQAGGSLRLSSAASGFIFGSNAMGWYRQAPGKERELVAAISRSGGSTYYADSVKGRFTISRDNAKNTVYLQMNSLKPEDTAVYYCASYLYKSRYLPEYDYWGQGTQVTVSS”, the “polyreactivity (PSR sort gate)” value is “high polyreactivity”. As for “QVQLVESGGGLVQAGGSLRLSSAASGFIFTWYAMGWYIQAPGKERELVAAISSSGGRTYYADSVKGRFTISRDNAKNTVYLQMNSLKPEDSAVYYCTAVKFIRQHSEYDYWGQGTLVTVSS”, the “polyreactivity (PSR sort gate)” value is “high polyreactivity”. On to “QVQLVESGGGLVQAGGSLRLSSAASGFIFYQYAMGWYRQAPGKERELVAAISKSGGNTYYADSVKGRFTISRDNAKNTVYLQMNSLKPEDSAVYYCAADRGQRGMYYWGQGTQVSVSS”, for which the “polyreactivity (PSR sort gate)” value was “high polyreactivity”. “QVQLVESGGGLVQAGGSLRLSSAASGFTFASYAMGWYRQAPGKERELVAAIDSDDSTNYADSVKGRFTISRDNAKNTVYLHMNSLKPEDTSVYYCAADEGPYYGIYEYYYWGQGTQVTVSS”: the “polyreactivity (PSR sort gate)” value is “high polyreactivity”. Under “QVQLVESGGGLVQAGGSLRLSSAASGFTFAYNDLGWSRQAPGKERELVATITNSGASTSYADSEKGRFTISRDNAKNTVYLQMNSLKPEDTAVYYCNVGLWRYVRFTGRYYPYDYWGQGTQVTVSS” stands “high polyreactivity”; under “QVQLVESGGGLVQAGGSLRLSSAASGFTFVINDMGWYRPAPGKERELVADITSGGDTYYADSVKGRFTISRDNAKNTVYLQMNSLKPEDTAVYYCAADIYPDWIYLLYGYWGQGTQVTVSS”, “low polyreactivity”; under “QVQLVESGGGLVQAGGSLRLSSAASGFTLYYYTMGWYRQAPGKERELVAAITSGGDTYYADSVKGRFTISRDNAKNTVYLHMHSLKPEDTAVYYCAADYGTQYGEYTYYDYDYWGKGTQVTVSS”, “low polyreactivity”. As for “QVQLVESGGGLVQAGGSLRLSSAASGITFATYAMGWYRQAPGKERELVAAISSSTGSTYYADSVKGRFTISRDNAKNTVYLQMNSLKPEDTAVYYCAAVRTQQYDYWGQGTQVTVSS”, the “polyreactivity (PSR sort gate)” value was “low polyreactivity”.
